This assay addresses MBP-OsMYC2 (rice, UniProt Q336P5 1-699). Nature of the assay: SPR.

The record followed here is PMC7485985 (2020).

Sequence of MBP-OsMYC2 (Q336P5 whole entry): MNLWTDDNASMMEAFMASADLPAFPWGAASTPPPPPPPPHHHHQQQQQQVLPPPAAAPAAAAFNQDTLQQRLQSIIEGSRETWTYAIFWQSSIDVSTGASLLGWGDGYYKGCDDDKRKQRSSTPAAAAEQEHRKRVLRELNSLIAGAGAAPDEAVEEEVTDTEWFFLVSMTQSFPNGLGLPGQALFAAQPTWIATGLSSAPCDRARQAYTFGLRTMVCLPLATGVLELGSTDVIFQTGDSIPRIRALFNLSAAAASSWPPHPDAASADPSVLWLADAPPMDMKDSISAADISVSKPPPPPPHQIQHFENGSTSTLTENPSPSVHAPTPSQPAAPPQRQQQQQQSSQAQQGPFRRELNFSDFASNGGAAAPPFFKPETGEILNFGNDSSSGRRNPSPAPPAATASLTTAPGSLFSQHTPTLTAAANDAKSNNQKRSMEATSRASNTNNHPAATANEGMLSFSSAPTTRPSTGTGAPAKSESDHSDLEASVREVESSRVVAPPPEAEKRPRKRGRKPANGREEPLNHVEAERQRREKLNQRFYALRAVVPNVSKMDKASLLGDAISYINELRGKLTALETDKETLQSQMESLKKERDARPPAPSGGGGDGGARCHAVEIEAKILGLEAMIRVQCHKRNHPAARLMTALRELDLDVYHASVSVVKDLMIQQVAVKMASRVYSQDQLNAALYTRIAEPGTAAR

B1: GST-OsGSK2 (enzyme)
chain: MDQPAPAPEPMLLDAQPPAAVACDKKQQEGEAPYAEGNDAVTGHIISTTIGGKNGEPKRTISYMAERVVGTGSFGIVFQAKCLETGETVAIKKVLQDRRYKNRELQLMRAMDHPNVISLKHCFFSTTSRDELFLNLVMEYVPETLYRVLKHYSNANHRMPLIYVKLYMYQLFRGLAYIHTVPGVCHRDVKPQNVLVDPLTHQVKLCDFGSAKTLVPGEPNISYICSRYYRAPELIFGATEYTTSIDIWSAGCVLAELLLGQPLFPGESAVDQLVEIIKVLGTPTREEIRCMNPNYTEFRFPQIKAHPWHKVFHKRMPPEAIDLASRLLQYSPSLRCTALDACAHPFFDELREPNARLPNGRPFPPLFNFKHELANSSQELISRLIPEHVRRQATHNFFNTGS
As for B1, the affinity, expressed as Kd, was 40.4 nM.
